Test results reported in paper PMC10798875 (The Journal of Cell Biology, 2024).
One block for each binder: values may come before it.

Experiments:
[1] = biological target: karyopherinα (Kapα; importinα1; KPNA2), full-length human (human, UniProt P52292 1-529); assay: MST
[2] = biological target: RanGTP (wild-type Ran loaded with GTP) (UniProt P62826 1-216); assay: MST

binding result [1]: binds
B1: ∆40NCAS (CAS lacking the first 40 amino acids of the N-terminus) (domain or fragment)
chain: NYPLLLLTLLEKSQDNVIKVCASVTFKNYIKRNWRIVEDEPNKICEADRVAIKANIVHLMLSSPEQIQKQLSDAISIIGREDFPQKWPDLLTEMVNRFQSGDFHVINGVLRTAHSLFKRYRHEFKSNELWTEIKLVLDAFALPLTNLFKATIELCSTHANDASALRILFSSLILISKLFYSLNFQDLPEFFEDNMETWMNNFHTLLTLDNKLLQTDDEEEAGLLELLKSQICDNAALYAQKYDEEFQRYLPRFVTAIWNLLVTTGQEVKYDLLVSNAIQFLASVCERPHYKNLFEDQNTLTSICEKVIVPNMEFRAADEEAFEDNSEEYIRRDLEGSDIDTRRRAACDLVRGLCKFFEGPVTGIFSGYVNSMLQEYAKNPSVNWKHKDAAIYLVTSLASKAQTQKHGITQANELVNLTEFFVNHILPDLKSANVNEFPVLKADGIKYIMIFRNQVPKEHLLVSIPLLINHLQAESIVVHTYAAHALERLFTMRGPNNATLFTAAEIAPFVEILLTNLFKALTLPGSSENEYIMKAIMRSFSLLQEAIIPYIPTLITQLTQKLLAVSKNPSKPHFNHYMFEAICLSIRITCKANPAAVVNFEEALFLVFTEILQNDVQEFIPYVFQVMSLLLETHKNDIPSSYMALFPHLLQPVLWERTGNIPALVRLLQAFLERGSNTIASAAADKIPGLLGVFQKLIASKANDHQGFYLLNSIIEHMPPESVDQYRKQIFILLFQRLQNSKTTKFIKSFLVFINLYCIKYGALALQEIFDGIQPKMFGMVLEKIIIPEIQKVSGNVEKKICAVGITKLLTECPPMMDTEYTKLWTPLLQSLIGLFELPEDDTIPDEEHFIDIEDTPGYQTAFSQLAFAGKKEHDPVGQMVNNPKIHLAQSLHKLSTACPGRVPSMVSTSLNAEALQYLQGYLQAASVTLL

Kd [2]: 1400 ± 400 nM | Kd [1]: 9.3 ± 2.9 nM
B2: cellular apoptosis susceptibility protein (CAS), human wild type (natural protein)
chain: MELSDANLQTLTEYLKKTLDPDPAIRRPAEKFLESVEGNQNYPLLLLTLLEKSQDNVIKVCASVTFKNYIKRNWRIVEDEPNKICEADRVAIKANIVHLMLSSPEQIQKQLSDAISIIGREDFPQKWPDLLTEMVNRFQSGDFHVINGVLRTAHSLFKRYRHEFKSNELWTEIKLVLDAFALPLTNLFKATIELCSTHANDASALRILFSSLILISKLFYSLNFQDLPEFFEDNMETWMNNFHTLLTLDNKLLQTDDEEEAGLLELLKSQICDNAALYAQKYDEEFQRYLPRFVTAIWNLLVTTGQEVKYDLLVSNAIQFLASVCERPHYKNLFEDQNTLTSICEKVIVPNMEFRAADEEAFEDNSEEYIRRDLEGSDIDTRRRAACDLVRGLCKFFEGPVTGIFSGYVNSMLQEYAKNPSVNWKHKDAAIYLVTSLASKAQTQKHGITQANELVNLTEFFVNHILPDLKSANVNEFPVLKADGIKYIMIFRNQVPKEHLLVSIPLLINHLQAESIVVHTYAAHALERLFTMRGPNNATLFTAAEIAPFVEILLTNLFKALTLPGSSENEYIMKAIMRSFSLLQEAIIPYIPTLITQLTQKLLAVSKNPSKPHFNHYMFEAICLSIRITCKANPAAVVNFEEALFLVFTEILQNDVQEFIPYVFQVMSLLLETHKNDIPSSYMALFPHLLQPVLWERTGNIPALVRLLQAFLERGSNTIASAAADKIPGLLGVFQKLIASKANDHQGFYLLNSIIEHMPPESVDQYRKQIFILLFQRLQNSKTTKFIKSFLVFINLYCIKYGALALQEIFDGIQPKMFGMVLEKIIIPEIQKVSGNVEKKICAVGITKLLTECPPMMDTEYTKLWTPLLQSLIGLFELPEDDTIPDEEHFIDIEDTPGYQTAFSQLAFAGKKEHDPVGQMVNNPKIHLAQSLHKLSTACPGRVPSMVSTSLNAEALQYLQGYLQAASVTLL
